Experimental data published in article PMC6191456 (Scientific Reports, 2018).

T1: pre-formed ClpA-ParD complex (E. coli | plasmid RK2, UniProt P0ABH9;P22995)
T1 construct: also called ParD-ClpA complex; source: formed on the sensor chip: purified ParD (200 nM) injected onto immobilised purified ClpA
T1 sequence 1: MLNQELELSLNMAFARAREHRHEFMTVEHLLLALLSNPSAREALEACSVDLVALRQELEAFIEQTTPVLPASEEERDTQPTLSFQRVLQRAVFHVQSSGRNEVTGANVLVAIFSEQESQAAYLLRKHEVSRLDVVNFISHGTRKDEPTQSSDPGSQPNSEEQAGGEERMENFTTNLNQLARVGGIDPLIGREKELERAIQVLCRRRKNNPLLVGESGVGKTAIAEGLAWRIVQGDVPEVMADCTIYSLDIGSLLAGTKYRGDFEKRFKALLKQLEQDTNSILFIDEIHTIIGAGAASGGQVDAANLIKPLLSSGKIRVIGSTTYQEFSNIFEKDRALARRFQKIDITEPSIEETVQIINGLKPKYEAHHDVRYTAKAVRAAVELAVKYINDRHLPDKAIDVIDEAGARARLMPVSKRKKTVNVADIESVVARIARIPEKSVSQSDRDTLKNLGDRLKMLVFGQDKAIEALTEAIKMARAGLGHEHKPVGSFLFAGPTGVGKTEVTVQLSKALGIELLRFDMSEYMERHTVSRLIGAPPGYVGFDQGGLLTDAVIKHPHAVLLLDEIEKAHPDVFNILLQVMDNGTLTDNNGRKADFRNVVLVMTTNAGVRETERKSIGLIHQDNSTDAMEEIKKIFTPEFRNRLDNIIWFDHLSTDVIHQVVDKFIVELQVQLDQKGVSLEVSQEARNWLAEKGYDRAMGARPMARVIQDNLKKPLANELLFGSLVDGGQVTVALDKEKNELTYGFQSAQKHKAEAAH
T1 sequence 2: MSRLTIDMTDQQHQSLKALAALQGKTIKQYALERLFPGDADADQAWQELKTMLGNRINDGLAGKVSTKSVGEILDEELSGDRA

T2: ClpA, the ATPase unit of ClpAP protease (E. coli, UniProt P0ABH9 1-758)
T2 construct: ClpA, ATP-dependent unfoldase subunit of the ClpAP protease, E. coli; also called ClpA ATPase; source: purified by a published protocol [55]
T2 sequence (looked up): T1 sequence 1

B1: ParE toxin of the parDE system from the broad host range plasmid RK2 (natural protein)
chain: MTAYILTAEAEADLRGIIRYTRREWGAAQVRRYIAKLEQGIARLAAGEGPFKDMSELFPALRMARCEHHYVFCLPRAGEPALVVAILHERMDLMTRLADRLKG
notes: also called GST-ParE
B2: ParD antitoxin of the parDE system from the broad host range plasmid RK2 (natural protein, UniProt P22995 1-83, looked up)
chain: T1 sequence 2
notes: the construct is not described for the SPR; source: purified by a published protocol [30]
B3: ParD-ParE complex (preincubated ParD and ParE proteins) (complex)
chain 1: T1 sequence 2
chain 2: B1 chain
notes: the ParD2-ParE2 make-up is cited from earlier work and not measured here; also called ParD-ParE heterotetamer; ParDE complex; source: purified ParD (200 nM) preincubated with increasing concentrations of purified ParE; copies: 2 + 2

Key:
Conditions in all cases: both partners purified
[1] = molecular target: T1, pre-formed ClpA-ParD complex; test: SPR; BIAcore 2000; ClpA immobilised on a CM5 chip; ParD (200 nM) injected to pre-form the ClpA-ParD complex, then ParE (200 nM) injected; ParD or buffer as controls; HBS-EP buffer with 10 mM magnesium acetate and 2 mM ATP
[2] = molecular target: T2, ClpA, the ATPase unit of ClpAP protease; test: SPR; BIAcore 2000; ParD or ParE immobilised on a CM5 chip, ClpA injected; HBS-EP buffer with 10 mM magnesium acetate and 2 mM ATP; flow 15 µl/min
[3] = molecular target: B1; test: SPR; BIAcore 2000; ClpA immobilised on a CM5 chip; ParD (200 nM) injected to pre-form the ClpA-ParD complex, then ParE (200 nM) injected; ParD or buffer as controls; HBS-EP buffer with 10 mM magnesium acetate and 2 mM ATP
[4] = molecular target: T2, ClpA, the ATPase unit of ClpAP protease; test: SPR; BIAcore 2000; ClpA immobilised on a CM5 chip; mixture of ParD (200 nM) preincubated with increasing concentrations of ParE injected; HBS-EP buffer with 10 mM magnesium acetate and 2 mM ATP

B1
binding result [1]: binds

B2
binding result [2]: binds | binding result [3]: binds

B3
binding result [4]: binds
